Assay results as given in the Immune Epitope Database (IEDB).

Columns and labels:
Assay in all cases: IEDB peptide-MHC binding, purified MHC/competitive/fluorescence; filed as Kd, often an IC50 or EC50 that approximates it; ≥ and ≤ were set here for values at or beyond the usual limits of such assays
Conditions in all cases: source organism: Lyssavirus rabies
[1] = target: HLA-B*53:01
[2] = target: HLA-A*30:01
[3] = target: HLA-A*66:01
[4] = target: HLA-B*27:05
[5] = target: HLA-A*30:02
[6] = target: HLA-B*14:02
[7] = target: HLA-B*40:01
[8] = target: HLA-B*44:02
[9] = target: HLA-A*01:01

Measured: Kd

YLDNVGVHI
≥ 5 µM: all assays above
